According to article PMC8464830:

What was measured:
Assay in all cases: SPR
[1] = molecular target: HIV-1 MA protein from clade B (LAI), full-length (HIV-1 clade B (LAI))
[2] = molecular target: HIV-1 MA protein from clade B (NL4-3), full-length (HIV-1 clade B (NL4-3))
[3] = molecular target: HIV-1 MA protein from clade D (94UG114.1), full-length (HIV-1 clade D (94UG114.1))

human Calmodulin-1 (from UniProt P0DP23 1-149) (natural protein)
Kd [1]: 49 µM | Kd [2]: 27.6 µM | Kd [3]: 33.3 µM
